Where no end group is shown, it is not given here.
T1: CED-9 (residues 68-251) (Caenorhabditis elegans, UniProt P41958 68-251)
T1 construct: range 68-251; Form used in isothermal titration calorimetry
T1 sequence (looked up): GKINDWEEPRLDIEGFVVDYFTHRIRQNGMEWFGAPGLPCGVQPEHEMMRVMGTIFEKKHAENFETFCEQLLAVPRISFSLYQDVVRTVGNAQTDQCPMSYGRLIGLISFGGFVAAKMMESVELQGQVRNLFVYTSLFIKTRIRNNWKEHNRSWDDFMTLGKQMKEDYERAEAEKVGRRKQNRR

T2: CED-9 (construct not stated) (Caenorhabditis elegans, UniProt P41958 1-251, limits assumed)
T2 construct: Also stands for the worm's own CED-9 in the in vivo rows
T2 sequence (looked up): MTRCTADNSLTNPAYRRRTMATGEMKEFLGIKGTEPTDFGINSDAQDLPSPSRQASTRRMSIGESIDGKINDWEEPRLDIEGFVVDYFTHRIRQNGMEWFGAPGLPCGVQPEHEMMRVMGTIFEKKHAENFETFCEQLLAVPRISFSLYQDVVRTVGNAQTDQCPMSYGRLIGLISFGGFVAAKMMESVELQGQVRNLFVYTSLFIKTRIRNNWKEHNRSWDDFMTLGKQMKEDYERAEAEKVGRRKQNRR

T3: CED-9 protein (residues 1-251) (Caenorhabditis elegans, UniProt P41958 1-251)
T3 construct: range 1-251
T3 sequence (looked up): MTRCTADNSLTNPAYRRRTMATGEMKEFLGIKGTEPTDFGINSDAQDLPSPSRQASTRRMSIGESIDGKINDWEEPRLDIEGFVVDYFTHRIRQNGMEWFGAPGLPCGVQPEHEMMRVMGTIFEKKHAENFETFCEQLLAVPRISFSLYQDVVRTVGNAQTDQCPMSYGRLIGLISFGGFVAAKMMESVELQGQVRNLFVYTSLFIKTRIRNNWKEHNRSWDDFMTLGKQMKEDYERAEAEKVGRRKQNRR

T4: CED-9 (residues 68-251) (Caenorhabditis elegans, UniProt P41958)
T4 construct: made in house
T4 sequence (P41958 68-251): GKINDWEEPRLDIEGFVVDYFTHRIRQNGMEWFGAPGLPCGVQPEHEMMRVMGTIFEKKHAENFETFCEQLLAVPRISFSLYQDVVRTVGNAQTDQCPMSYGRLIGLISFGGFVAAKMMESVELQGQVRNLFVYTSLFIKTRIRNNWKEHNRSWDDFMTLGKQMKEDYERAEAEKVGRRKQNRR


How the values were obtained:
[1] = biological target: T1, CED-9 (residues 68-251); experiment: isothermal titration calorimetry (ITC)
Source text: (§1) The EGL-1/CED-9 complex adopts a compact, globular fold, resembling a single folding unit. CED-9 comprises 7 α helices, with the central hydrophobic helix α5 surrounded by 6 helices and several surface loops. A 27-amino acid fragment of the EGL-1 protein (residues 47-73) forms a single amphipathic α helix, packing against CED-9 helices α2, α3, α4, α5, and α7 over an extended hydrophobic surface cleft. Residues N- or C-terminal to the EGL-1 helix were disordered in the crystals and thus are not involved in binding to CED-9.

[2] = biological target: T2, CED-9 (construct not stated); experiment: GST-mediated pull-down
Source text: This example describes the biochemical and functional analysis of EGL-1/CED-9 interactions. To corroborate the structural analysis, mutations on the interface residues of EGL-1 were examined for their potential to weaken or disrupt its binding to CED-9. Various mutant EGL-1 fragments were purified as fusion proteins with glutathione S-transferase (GST) and their interactions with CED-9 were investigated using a GST-mediated pull-down assay. […] Strikingly, substitution of Gly55 by a negatively charged glutamate residue was not sufficient to abolish interaction with CED-9.

[3] = biological target: T3, CED-9 protein (residues 1-251); experiment: EGL-1 missense mutants tested for interaction with CED-9 (Example 1)
[4] = tested on: ced-1 (e1735); egl-1 (n1084 n3082) animals; experiment: in vivo cell killing: cell corpses in four-fold transgenic embryos after heat-shock expression of EGL-1 fragments; design: species or system C. elegans; conditions: anterior head region of four-fold transgenic embryos; heat-shock promoter expression
Procedure: In this example, the ability of EGL-1 mutants to disrupt the CED-4/CED-9 complex was tested. […] To examine this scenario, constructs were injected into ced-1 (e1735); egl-1 (n1084 n3082) animals that direct expression of various EGL-1 fragments under the control of the C. elegans heat-shock promoters. Cell corpses were scored in the anterior head region of four-fold transgenic embryos after the heat-shock treatment.

[5] = biological target: T4, CED-9 (residues 68-251); experiment: isothermal titration calorimetry (ITC) of EGL-1 fragments binding to CED-9; design: species or system C. elegans; conditions: binding to CED-9 (residues 68-251), read-out: dissociation constant
Source text: as §1

[6] = biological target: T3, CED-9 protein (residues 1-251); experiment: binding test of GST-EGL-1 fragments with CED-9 (1-251)
Procedure: This example describes the characterization of EGL-1/CED-9 interactions. To determine the mechanism of CED-9 recognition by EGL-1, the EGL-1/CED-9 interaction was characterized. Various fragments of the GST-EGL-1 protein were evaluated for their abilities to interact with the CED-9 protein (residues 1-251). […] In contrast, the C-terminal half (residues 45-87 or 45-91) formed a stable complex with CED-9.

Row | Kd [1] [nM] | binding result [2] | Molecule | further results
1 | 6.7 |  | full-length EGL-1 protein (from UniProt O61667 16-106) | 
2 |  | no binding | SEISSIGYEIESKLAAMCDDADAQMMSYSAHASDRSLFHRLLD (other, UniProt O61667 60-102, looked up, also: GST fusion in pull-down, placement and linker not given here, GST fusion in the pull-down; also called EGL-1 (G55E/F65A); EGL-1 double mutant; not shown: glutathione S-transferase (GST) fusion partner) [GST-EGL-1 fragment double mutant (mut2, G55E/F65A)] | binding result [3]: no binding
3 |  | no binding | SEISSIGYEIESKAAAMCDDADAQAMSYSAHASDRSLFHRLLD (other, UniProt O61667 60-102, looked up, also: GST fusion in pull-down, placement and linker not given here, GST fusion in the pull-down; not shown: glutathione S-transferase (GST) fusion partner) [GST-EGL-1 fragment quadruple mutant (mut4, G55E/L58A/F65A/M69A)] | 
4 |  |  | full-length EGL-1 protein: full-length pro-apoptotic BH-3 Only protein EGL-1 of C. elegans (protein, UniProt O61667 1-106, looked up, full-length, full-length pro-apoptotic BH-3 Only protein EGL-1 of C. elegans) MLMLTFASTSSDLLPMSNVFDVQSSVFYNEKNMFYSSSQDFSSCEDSSQFADDSGFFDDSEISSIGYEIGSKLAAMCDDFDAQMMSYSAHASDRSLFHRLLDFFAF | cell killing (cell corpses induced) [4]: induced robust cell killing; Kd [5]: 6.7 nM
5 | 6.4 |  | SSIGYEIGSKLAAMCDDFDAQMMSY (peptide, UniProt O61667 63-87, looked up, range 63-87; Used in ITC) [EGL-1 fragment (residues 48-72)] | 
6 |  |  | {GST}-MSNVFDVQSSVFYNEKNMFYSSSQDFSSCEDSSQFADDSGFFDDS (other, UniProt O61667 16-60, looked up, GST placed at the N-terminus by the printed name 'GST-EGL-1'; also called N-terminal half (residues 1-45) of EGL-1; not shown: glutathione S-transferase (GST) fusion partner) [GST-EGL-1 N-terminal half (residues 1-45)] | binding result [6]: no binding

From US20080138847A1, “Bcl-2 family member and BH-3 only proteins for use in development of peptidomimetics” (priority 2004, published 2008)
